Where two headings read alike, the source gives them in different places.
Legend:
[1] = rat, in vivo, 50 mg/kg
Method: (§1) Rats were administered, orally and by intracolonic instillation, dosing solutions of 1 mg/kg of interferon and no carrier.

[2] = In vivo interferon delivery in rats (serum interferon, ELISA); conditions: 1 mg/kg interferon, no carrier
Method: as §1

Mean peak serum interferon concentration [1] | Compound | Mean peak serum interferon concentration ([2]; intracolonic (IC)) | Mean peak serum interferon concentration ([2]; oral (PO))
2611±695 | O=C(O)CCCc1ccc(NC(=O)COc2ccccc2)cc1 [Compound 9] | – | –
– | interferon | 79±100 | 1951±1857

Source: patent US5804688A, “Compounds and compositions for delivering active agents” (Emisphere Technologies, Inc., priority 1997, dated 1998)
